Measured values taken from US20260285993 (published 2026).

T1: cynomolgus PRLR ECD (cynomolgus monkey)
T1 chain: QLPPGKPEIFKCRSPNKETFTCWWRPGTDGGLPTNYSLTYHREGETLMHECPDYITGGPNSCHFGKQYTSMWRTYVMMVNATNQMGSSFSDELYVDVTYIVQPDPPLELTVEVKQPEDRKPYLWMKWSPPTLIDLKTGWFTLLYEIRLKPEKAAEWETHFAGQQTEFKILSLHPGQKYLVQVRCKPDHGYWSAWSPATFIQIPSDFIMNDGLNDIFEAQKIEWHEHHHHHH

B1: H-PR-B06 (antibody, V domains shown)
VH: DVKLVESGGGLVKPGGSLKLACAASGFTFSSYTMSWVRQTPEKRLEWVATISSGGSYTYYPDSVKGRFTISRDNAKNTLYLQLSSLKSEDTAMYYCTRDRYYSTTPDWYFDVWGAGTTVTVSS
VL: DIVLTQSPATLSVTPGDSVSLSCRATQIIFNNLHWYQQKSHESPRLLITYTSQSISGIPSRFSGSGSGTDFTLTINSVETEDFGMYFCQQSNTWPRTFGGGTKLEIK
B2: HP-PR02H02 (antibody, V domains shown)
VH: EVMLVESGGGLVKPGGSLKLACAASGFTFSSYTMSWVRQTPEKRLEWVATISSGGSYTYYPDSVKGRFTISRDNAKNTLYLQLSSLKSEDTAMYYCTRDRYYSTTPDWYFDVWGAGTTLTVSS
VL: DIVITQSPATLSVTPGDSVSLSCRATQIIFNNLHWYQQKSHESPRLLITYTSQSISGIPSRFSGSGSGTDFTLTINSVETEDFGMYFCQQSNTWPRTFGGGTKLEIK
B3: HP-PR01B01 (antibody, V domains shown)
VH: EVHLVESGPDLVKPSQSLSLTCTVTGYSITSGYNWHWIRQFPGNKLEWMGYIHYSGSTKYDPSLKSRISFTRDTSRNQFFLQLNSVTTEDRATYYCARSEAGGYSWFAYWGQGTLVTVSA
VL: DIVMTQSPAIMSASPGEKVTMACSASSSVNYMHWYQQKSGTSPKRWIYDTSKLASGVPARFSGSGSGTSYSLTISSMEAEDAATYYCQQWSSNPLTFGAGTKLELK

Molecular target: T1, cynomolgus PRLR ECD
Test: ELISA

Binding result, no binding:
B1, B2, B3
